Source: publication doi:10.1101/2020.02.09.940833 (bioRxiv, 2020)

Biological target: SAR1B (human, UniProt Q9Y6B6 1-198)
Test: liposome flotation

Chain of SAR1B (Q9Y6B6 whole entry): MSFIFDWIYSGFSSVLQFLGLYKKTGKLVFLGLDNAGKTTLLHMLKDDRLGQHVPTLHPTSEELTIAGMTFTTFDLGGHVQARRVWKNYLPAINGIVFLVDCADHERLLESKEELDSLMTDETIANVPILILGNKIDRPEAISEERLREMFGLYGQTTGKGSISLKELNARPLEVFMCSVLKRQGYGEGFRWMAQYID

Row | Binder | fold binding relative to SAR1A, with SEC31A-af added [fold] | fold recruitment relative to SAR1A [fold]
1 | SEC23B (natural protein) MATYLEFIQQNEERDGVRFSWNVWPSSRLEATRMVVPLACLLTPLKERPDLPPVQYEPVLCSRPTCKAVLNPLCQVDYRAKLWACNFCFQRNQFPPAYGGISEVNQPAELMPQFSTIEYVIQRGAQSPLIFLYVVDTCLEEDDLQALKESLQMSLSLLPPDALVGLITFGRMVQVHELSCEGISKSYVFRGTKDLTAKQIQDMLGLTKPAMPMQQARPAQPQEHPFASSRFLQPVHKIDMNLTDLLGELQRDPWPVTQGKRPLRSTGVALSIAVGLLEGTFPNTGARIMLFTGGPPTQGPGMVVGDELKIPIRSWHDIEKDNARFMKKATKHYEMLANRTAANGHCIDIYACALDQTGLLEMKCCANLTGGYMVMGDSFNTSLFKQTFQRIFTKDFNGDFRMAFGATLDVKTSRELKIAGAIGPCVSLNVKGPCVSENELGVGGTSQWKICGLDPTSTLGIYFEVVNQHNTPIPQGGRGAIQFVTHYQHSSTQRRIRVTTIARNWADVQSQLRHIEAAFDQEAAAVLMARLGVFRAESEEGPDVLRWLDRQLIRLCQKFGQYNKEDPTSFRLSDSFSLYPQFMFHLRRSPFLQVFNNSPDESSYYRHHFARQDLTQSLIMIQPILYSYSFHGPPEPVLLDSSSILADRILLMDTFFQIVIYLGETIAQWRKAGYQDMPEYENFKHLLQAPLDDAQEILQARFPMPRYINTEHGGSQARFLLSKVNPSQTHNNLYAWGQETGAPILTDDVSLQVFMDHLKKLAVSSAC | ~5 | ~5
2 | SEC23A (natural protein) MTTYLEFIQQNEERDGVRFSWNVWPSSRLEATRMVVPVAALFTPLKERPDLPPIQYEPVLCSRTTCRAVLNPLCQVDYRAKLWACNFCYQRNQFPPSYAGISELNQPAELLPQFSSIEYVVLRGPQMPLIFLYVVDTCMEDEDLQALKESMQMSLSLLPPTALVGLITFGRMVQVHELGCEGISKSYVFRGTKDLSAKQLQEMLGLSKVPLTQATRGPQVQQPPPSNRFLQPVQKIDMNLTDLLGELQRDPWPVPQGKRPLRSSGVALSIAVGLLECTFPNTGARIMMFIGGPATQGPGMVVGDELKTPIRSWHDIDKDNAKYVKKGTKHFEALANRAATTGHVIDIYACALDQTGLLEMKCCPNLTGGYMVMGDSFNTSLFKQTFQRVFTKDMHGQFKMGFGGTLEIKTSREIKISGAIGPCVSLNSKGPCVSENEIGTGGTCQWKICGLSPTTTLAIYFEVVNQHNAPIPQGGRGAIQFVTQYQHSSGQRRIRVTTIARNWADAQTQIQNIAASFDQEAAAILMARLAIYRAETEEGPDVLRWLDRQLIRLCQKFGEYHKDDPSSFRFSETFSLYPQFMFHLRRSSFLQVFNNSPDESSYYRHHFMRQDLTQSLIMIQPILYAYSFSGPPEPVLLDSSSILADRILLMDTFFQILIYHGETIAQWRKSGYQDMPEYENFRHLLQAPVDDAQEILHSRFPMPRYIDTEHGGSQARFLLSKVNPSQTHNNMYAWGQESGAPILTDDVSLQVFMDHLKKLAVSSAA | ~5 | ~5
